Data: the supplement of paper PMC10598134
± gives the standard deviation.

Assay: collision cross section of modified peptide (TIMS, N2, iRT-aligned); higher = larger / more extended gas-phase ion
Procedure: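 1/K0 was aligned run-wise to spiked iRT peptides and converted to CCS in N2 (Mason-Schamp). Values are the mean of 1-3 technical replicates for the most abundant feature at each charge state.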

[1] = charge state: 2, modification: Phospho (Y)
[2] = charge state: 2, modification: Glutarylation
[3] = charge state: 2, modification: Trimethyl (K)
[4] = charge state: 3, modification: Trimethyl (K)
[5] = charge state: 2, modification: Hydroxyproline
[6] = charge state: 2, modification: HexNAc (ST)
[7] = charge state: 2, modification: Methyl (K)
[8] = charge state: 3, modification: Methyl (K)
[9] = charge state: 2, modification: Acetyl (K)
[10] = charge state: 2, modification: Succinyl
[11] = charge state: 2, modification: hydroxyisobutyryl
[12] = charge state: 2, modification: GlyGly (K)
[13] = charge state: 3, modification: GlyGly (K)
[14] = charge state: 2, modification: Malonyl
[15] = charge state: 3, modification: Methyl (R)
[16] = charge state: 3, modification: Succinyl
[17] = charge state: 3, modification: Malonyl
[18] = charge state: 2, modification: Citrullination (R)
[19] = charge state: 3, modification: Citrullination (R)
[20] = charge state: 3, modification: Acetyl (K)

With “AAGQPYEQHAK [_AAGQPY(Phospho (Y))EQHAK_]” the collision cross section [1] was 368.83 ± 10 Å² and the collision cross section (charge state: 3, modification: Phospho (Y)) was 436.55 Å².

Work on “TGGTQTDLFTCGKCK [_TGGTQTDLFTCGK(Gluratylation)CK_]” yielded a collision cross section [2] of 442.58 Å².

In the case of “DASTLQSQKAEGTGDAK [_DASTLQSQK(Trimethyl (K))AEGTGDAK_]”, the collision cross section [3] is reported as 445.31 ± 1 Å² and the collision cross section [4] is reported as 482.47 ± 1.6 Å².

Work on “TEVLSPNSKVESK [_TEVLSPNSK(Trimethyl (K))VESK_]” yielded a collision cross section [3] of 405.78 ± 0.61 Å² and a collision cross section [4] of 479.92 ± 1.6 Å².

In the case of “GDIGETGVPGAEGPR [_GDIGETGVPGAEGP(Hydroxyproline)R_]”, the collision cross section [5] is reported as 384.38 ± 0.27 Å².

With “GGPGAPGAPGPKGESGDYK [_GGP(Hydroxyproline)GAPGAPGPKGESGDYK_]” the collision cross section [5] was 431.65 ± 0.34 Å² and the collision cross section (charge state: 3, modification: Hydroxyproline) was 482.83 ± 2.3 Å².

In the case of TATLATLATR [_TATLATLAT(HexNAc (ST))R_], the collision cross section [6] is reported as 364.8 ± 0.64 Å².

Work on “LQDVSGQLSSSKK [_LQDVSGQLSSSK(Methyl (K))K_]” yielded a collision cross section [7] of 404.82 ± 1.9 Å² and a collision cross section [8] of 465.49 ± 8.7 Å².

With “AAQASDLEKIHLDEK [_AAQASDLEK(Crotonyl)IHLDEK_]” the collision cross section (charge state: 2, modification: Crotonyl) was 464.23 ± 0.82 Å² and the collision cross section (charge state: 3, modification: Crotonyl) was 499.02 ± 2.2 Å².

LNAIYQNNLTK [_LNAIY(Nitro (Y))QNNLTK_] showed a collision cross section (charge state: 2, modification: Nitro (Y)) of 384.56 ± 0.55 Å².

With INNFSADIKDSK [_INNFSADIK(Butyryl)DSK_] the collision cross section (charge state: 2, modification: Butyryl) was 405.78 ± 0.75 Å² and the collision cross section (charge state: 3, modification: Butyryl) was 461.68 ± 3.2 Å².

In the case of TPNLYIYSKK [_TPNLYIYSK(Acetyl (K))K_], the collision cross section [9] is reported as 385.54 ± 0.92 Å².

Work on LLEQKTQESQK [_LLEQK(Succinyl)TQESQK_] yielded a collision cross section [10] of 400.32 ± 0.77 Å².

In the case of “SITHSTVGSKGEK [_SITHSTVGSK(Propionyl)GEK_]”, the collision cross section (charge state: 2, modification: Propionyl) is reported as 395.17 ± 0.94 Å² and the collision cross section (charge state: 3, modification: Propionyl) is reported as 443.25 ± 0.59 Å².

With “YEEIVKEVSTYIK [_YEEIVK(hydroxyisobutyryl)EVSTYIK_]” the collision cross section [11] was 436.97 ± 5 Å².

“GFCFITYTDEEPVKK [_GFCFITYTDEEPVK(GlyGly (K))K_]” showed a collision cross section [12] of 487.35 ± 2.6 Å² and a collision cross section [13] of 525.77 Å².

In the case of LGNDFHTNKR [_LGNDFHTNK(GlyGly (K))R_], the collision cross section [12] is reported as 384.34 ± 1.5 Å² and the collision cross section [13] is reported as 447.63 ± 1.2 Å².

“VDIDVPDVNIEGPDAKLK [_VDIDVPDVNIEGPDAK(Malonyl)LK_]” gave a collision cross section [14] of 474.57 Å².

Work on “IQTKAGEATVK [_IQTK(hydroxyisobutyryl)AGEATVK_]” yielded a collision cross section [11] of 374.42 ± 0.28 Å².

With “ANLEKAQAELVGTADEATR [_ANLEK(GlyGly (K))AQAELVGTADEATR_]” the collision cross section [12] was 487.2 ± 1.5 Å² and the collision cross section [13] was 513.9 ± 1.3 Å².

“ASEALLKQLK [_ASEALLK(Trimethyl (K))QLK_]” showed a collision cross section [3] of 371.28 ± 0.027 Å² and a collision cross section [4] of 439.12 ± 1.8 Å².

With “VNVEAPDVNLEGLGGKLK [_VNVEAPDVNLEGLGGK(Trimethyl (K))LK_]” the collision cross section [3] was 469.62 ± 0.99 Å² and the collision cross section [4] was 545.57 ± 1.8 Å².

“SGGYGGSRDYYSSR [_SGGYGGSR(Methyl (R))DYYSSR_]” gave a collision cross section [15] of 475.52 ± 2 Å².

In the case of “VGTASVLQPVKK [_VGTASVLQPVK(Acetyl (K))K_]”, the collision cross section [9] is reported as 379.84 ± 0.47 Å².

TPNLYIYSKK [_TPNLYIYSK(Dimethyl (K))K_] gave a collision cross section (charge state: 2, modification: Dimethyl (K)) of 376.02 ± 0.46 Å² and a collision cross section (charge state: 3, modification: Dimethyl (K)) of 432.06 ± 2.8 Å².

For “VYIASSSGSTAIKK [_VYIASSSGSTAIK(Succinyl)K_]”, the collision cross section [10] was 413.08 ± 1.1 Å² and the collision cross section [16] was 508.16 ± 1.6 Å².

In the case of “VFIGNLNTLVVKKK [_VFIGNLNTLVVK(Malonyl)KK_]”, the collision cross section [17] is reported as 517.22 Å².

In the case of “AAINQKLIETGER [_AAINQK(Malonyl)LIETGER_]”, the collision cross section [14] is reported as 404.84 ± 0.034 Å² and the collision cross section [17] is reported as 473.19 Å².

In the case of TTEETSKPK [_TTEETSK(Succinyl)PK_], the collision cross section [10] is reported as 347.17 ± 0.86 Å².

In the case of ANAIGRGAK [_ANAIGR(Methyl (R))GAK_], the collision cross section (charge state: 2, modification: Methyl (R)) is reported as 322.43 ± 1.8 Å².

Sequence “ITESVAETAQTIKK [_ITESVAETAQTIK(Malonyl)K_]” has a collision cross section [14] of 420.49 ± 0.57 Å² and a collision cross section [17] of 509.94 ± 1.1 Å².

In the case of “GTISAPGKVVTAAAQAK [_GTISAPGK(Succinyl)VVTAAAQAK_]”, the collision cross section [10] is reported as 439.98 ± 0.51 Å² and the collision cross section [16] is reported as 520.85 ± 1.6 Å².

“VGVEVPDVNIEGPEGKLK [_VGVEVPDVNIEGPEGK(Succinyl)LK_]” showed a collision cross section [10] of 461.15 ± 2.6 Å² and a collision cross section [16] of 499.18 Å².

Sequence SGFGKFER [_SGFGK(Acetyl (K))FER_] has a collision cross section [9] of 331.68 ± 1.9 Å².

With “LGTTPSVYGGAGGRGIR [_LGTTPSVYGGAGGR(Citrullination (R))GIR_]” the collision cross section [18] was 423 ± 0.56 Å² and the collision cross section [19] was 500.66 ± 24 Å².

“ASDTSSETVFGKR [_ASDTSSETVFGK(GlyGly (K))R_]” showed a collision cross section [12] of 414.9 ± 1.4 Å² and a collision cross section [13] of 487.28 ± 2 Å².

“GVPRGVHLGSQGLQR [_GVPR(Methyl (R))GVHLGSQGLQR_]” gave a collision cross section [15] of 492.74 ± 2.1 Å².

“VLTANSNPSSPSAAKR [_VLTANSNPSSPSAAK(Malonyl)R_]” showed a collision cross section [14] of 426.78 ± 1.6 Å² and a collision cross section [17] of 452.99 Å².

With LTSLNVKYNNDK [_LTSLNVK(Succinyl)YNNDK_] the collision cross section [10] was 411.65 ± 1.1 Å².

“SGNLTEDDKHNNAK [_SGNLTEDDK(Methyl (K))HNNAK_]” showed a collision cross section [7] of 417.49 ± 1.1 Å² and a collision cross section [8] of 487.35 ± 2.7 Å².

Work on PAVTAAPK [_PAVT(HexNAc (ST))AAPK_] yielded a collision cross section [6] of 333.39 ± 1 Å².

With “FDDTNPEKEEAK [_FDDTNPEK(Trimethyl (K))EEAK_]” the collision cross section [3] was 399.27 ± 1.6 Å² and the collision cross section [4] was 487.6 ± 1.9 Å².

Sequence “LLRGVGGSHGR [_LLR(Citrullination (R))GVGGSHGR_]” has a collision cross section [18] of 372.77 ± 0.65 Å² and a collision cross section [19] of 442.38 ± 1.8 Å².

Work on “GRGGAESHTFK [_GR(Citrullination (R))GGAESHTFK_]” yielded a collision cross section [18] of 374.44 ± 0.39 Å² and a collision cross section [19] of 436.66 ± 2.2 Å².

“ATVASSTQKFQDLGVK [_ATVASSTQK(Succinyl)FQDLGVK_]” showed a collision cross section [10] of 444.76 ± 1.1 Å² and a collision cross section [16] of 493.48 ± 0.68 Å².

With DHLSDKESK [_DHLSDK(Malonyl)ESK_] the collision cross section [14] was 349.37 ± 0.029 Å² and the collision cross section [17] was 411.48 Å².

With IQQELQTAKK [_IQQELQTAK(Acetyl (K))K_] the collision cross section [9] was 374.24 ± 0.38 Å² and the collision cross section [20] was 435.9 ± 0.91 Å².

In the case of DFDTALKHYDK [_DFDTALK(GlyGly (K))HYDK_], the collision cross section [12] is reported as 400.17 ± 0.77 Å² and the collision cross section [13] is reported as 467.02 ± 1.1 Å².

TLDEILQEKK [_TLDEILQEK(Acetyl (K))K_] gave a collision cross section [9] of 377 ± 0.3 Å² and a collision cross section [20] of 448.44 Å².

Work on “DYVSQFEGSALGK [_DY(Phospho (Y))VSQFEGSALGK_]” yielded a collision cross section [1] of 391.59 ± 0.64 Å².

Sequence TEVLSPNSKVESK [_TEVLSPNSK(Formyl)VESK_] has a collision cross section (charge state: 2, modification: Formyl) of 404.6 ± 5.2 Å² and a collision cross section (charge state: 3, modification: Formyl) of 443.86 ± 4.1 Å².

Work on DHLSDKESK [_DHLSDK(Succinyl)ESK_] yielded a collision cross section [10] of 350.32 ± 1.6 Å² and a collision cross section [16] of 416.05 ± 0.88 Å².

“IQTKAGEATVK [_IQTK(Gluratylation)AGEATVK_]” showed a collision cross section [2] of 370.55 ± 0.62 Å².

“DSINFLDHINGKK [_DSINFLDHINGK(Succinyl)K_]” showed a collision cross section [16] of 461.79 Å².
